Results on one substance are retold here after patent US20230190801A1.

This assay concerns the target CD38 (human) (UniProt P28907). In words: cell-based or functional assay.

For daratumumab (antibody), the daratumumab-induced fratricide of expanded NK cells (1 µg/mL daratumumab, 4 h, PI flow cytometry) (times lower (g-NK vs cNK)) came to 13 and the g-NK cell-mediated cytotoxicity against daratumumab-treated MM cell lines, correlation with CD38 expression worked out at 0.92 R^2.
